The target of this test is mouse synaptosomes.

In turn, “active botulinum neurotoxin A (from UniProt P0DPI0 2-1296)” showed a maximum inhibition of 78%.

For the origin of these results see patent publication US20070258992A1.
